Ends that are not written are not given here.

In assay [1] the target is T1, Siglec-10 expressed on human donor-derived macrophages (human, UniProt Q96LC7 17-697).
T1 sequence (looked up): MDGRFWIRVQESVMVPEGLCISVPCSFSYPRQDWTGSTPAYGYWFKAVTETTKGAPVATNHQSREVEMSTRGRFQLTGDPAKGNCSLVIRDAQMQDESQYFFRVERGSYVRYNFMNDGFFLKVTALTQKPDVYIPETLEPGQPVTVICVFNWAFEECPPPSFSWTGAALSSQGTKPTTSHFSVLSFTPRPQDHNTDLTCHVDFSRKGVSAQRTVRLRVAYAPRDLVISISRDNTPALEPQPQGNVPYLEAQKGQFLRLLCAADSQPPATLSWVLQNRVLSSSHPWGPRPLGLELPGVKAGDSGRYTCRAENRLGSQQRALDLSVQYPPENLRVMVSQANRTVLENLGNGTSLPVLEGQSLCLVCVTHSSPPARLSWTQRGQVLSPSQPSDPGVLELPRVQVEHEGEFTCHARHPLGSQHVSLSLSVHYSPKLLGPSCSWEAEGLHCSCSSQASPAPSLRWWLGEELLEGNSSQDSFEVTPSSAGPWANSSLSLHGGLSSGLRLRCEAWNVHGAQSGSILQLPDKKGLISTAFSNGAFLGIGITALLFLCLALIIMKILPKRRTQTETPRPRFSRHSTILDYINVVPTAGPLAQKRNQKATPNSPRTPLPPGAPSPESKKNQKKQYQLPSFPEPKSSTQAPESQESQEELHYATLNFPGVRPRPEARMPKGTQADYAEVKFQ
The assay can be described thus: cell-based or functional assay.

The target in the next assay is T2, recombinant Siglec5-Fc (human, UniProt O15389 17-434, limits assumed).
T2 construct: Bought reagent; not shown: human Fc
T2 sequence (looked up): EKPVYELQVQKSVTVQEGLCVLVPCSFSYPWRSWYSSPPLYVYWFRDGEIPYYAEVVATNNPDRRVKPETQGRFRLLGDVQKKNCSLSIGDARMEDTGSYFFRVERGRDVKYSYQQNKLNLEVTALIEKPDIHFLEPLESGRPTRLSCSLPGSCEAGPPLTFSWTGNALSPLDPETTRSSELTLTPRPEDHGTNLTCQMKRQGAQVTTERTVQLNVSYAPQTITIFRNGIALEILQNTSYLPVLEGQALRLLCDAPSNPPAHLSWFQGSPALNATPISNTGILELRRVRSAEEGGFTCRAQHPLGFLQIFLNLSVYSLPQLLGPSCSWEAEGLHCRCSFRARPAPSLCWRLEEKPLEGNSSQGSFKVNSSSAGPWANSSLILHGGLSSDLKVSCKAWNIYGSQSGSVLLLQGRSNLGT
Briefly: flow cytometry, Fc-fusion on MCF-7 cells, anti-human Fc detection. As to the method:
Siglec10 has been reported to interact with the highly sialylated form of CD24. […] Indeed, we observed that CD24 deletion alone is insufficient to completely abrogate Siglec-10-Fc binding in the presence of surface sialylation (FIG. 15a,b).
Neuraminidase treatment and recombinant Siglec binding assay. MCF-7 cells were treated with either neuraminidase (from Vibrio cholerae, Roche) (1×10⁶ cells/100 U/mL) or neuraminidase that was heat inactivated for 15 min at 95° C. prior to incubation for 1 h at 37° C. in serum-free medium, after which reactions were quenched with serum prior to analysis. Recombinant Siglecs (10, 5, and 9) were purchased as human Fc-fusion proteins from R&D Systems. Binding of recombinant Siglecs versus human IgG1 control was assayed at a concentration of 1×10⁵ cells/1 mg/mL at 37° C. for 1 h, in the absence of EDTA. Cells were stained with a fluorescently-conjugated anti-human Fc antibody (Biolegend) to enable the measurement of recombinant Siglec binding by flow cytometry.

B1: CD24 expressed on human cancer cells (MCF-7 and other CD24+ cells) (ligand, UniProt P25063 27-59, looked up)
chain: SETTTGTSSNSSQSTSNSGLAPNPTNATTKAAG
modifications: also: heavily glycosylated, sialylated, GPI-anchored
notes: whole, on cells; also called Small Cell Lung Carcinoma Cluster 4 Antigen
For B1, the “phagocytosis of CD24-expressing human tumors” value in assay [1] is not above 13 fold. In addition, the binding result in the assay with recombinant Siglec5-Fc was “no binding (tested: 1×10^5 cells/1 mg/mL)”.

(Values after patent publication US20210213055A1 (Stanford University, published 2021).)
